From paper PMC10980823, “Structural basis of Acinetobacter type IV pili targeting by an RNA virus” (Nature Communications, 2024)
Where “and” joins values, the source holds several entries; their conditions need not be identical. Identical values can stand only once.

B1: AP205 maturation protein (Mat) (natural protein, Acinetobacter phage AP205)
chain: MNMYKWVPESIRDSGEGQPSYSNNGDYAPSGPWVAAGIHTMPQSLRDSMRNSIMVTAQARRDVIGPEWGPDGRFTGYASVIGTPDPKPADIVNKFTVERRPVSNGNFQQRVKAGDIVVAPYTSDGKITVKLVAGQKDISSTPDYDYRIDSSLASSAGFVVAGERWYYTKRHFIIPRYFQNWRMRRRKYVTGWVMPTFYSPKEIFNRLKDSLVPDTGLVTQVWADNNTKRMDFLTAMAEIPQTLSSFLDALGYLGSLIKDFKRRRFFLNKAHQRIRNKLGVSFAERRSQIVSKYDRKIASARKPAIIVKLRQRKEKALKALDKMRVREEKKMIREFATQAASLWLSFRYEIMPLYYQSQDVLDVIANSTSEFMTSRDFVAKAINIGIPLEWNLDQENLVSQPRHNVMVKSKLSPENNIGKTLSVNPFTTAWELLTLSFVVDWFVNFGDVIAGFTGGYSDDSGATASWRFDDKKVFHLKNIPSAMVIVDINFYTRQVIDPRLCGGLAFSPKLNLFRYLDAMSLSWNRSRLKISRAT
notes: maturation protein (Mat) of Acinetobacter phage AP205, 534 amino acids as printed; native protein in the virion, where two copies (inner and outer Mat) form a dimer; Native virion protein; models of both copies are in PDB 8TOC; also called inner Mat; outer Mat; source: in AP205 virions grown on A. gp16, purified (CsCl gradient)

Key:
[1] = target: Acinetobacter genomosp. 16 type IV pilus (T4P) mature pilin (Acinetobacter genomosp. 16 (endogenous)); assay: cryo-EM structure; purified AP205 and purified T4P mixed at 1:1 volume ratio at 30 C for 30 min; AP205 with two T4P at 3.6 A, with one T4P at 4.2 A; local maps of inner Mat-T4P at 8.2 A and outer Mat-T4P at 8.6 A
[2] = target: the molecule itself; assay: cryo-EM structure; single-particle cryo-EM of purified apo AP205; asymmetric reconstruction of the mature virion at 3.1 A; icosahedral T=3 (3.2 A) and T=4 (3.4 A) particles from the same data
[3] = target: B1; assay: as above; conditions: both partners purified

Row | Binder | stoichiometry N [1] | stoichiometry N [2] | binding result [3]
1 | AP205 mature virion (complex) chain 1: MNMYKWVPESIRDSGEGQPSYSNNGDYAPSGPWVAAGIHTMPQSLRDSMRNSIMVTAQARRDVIGPEWGPDGRFTGYASVIGTPDPKPADIVNKFTVERRPVSNGNFQQRVKAGDIVVAPYTSDGKITVKLVAGQKDISSTPDYDYRIDSSLASSAGFVVAGERWYYTKRHFIIPRYFQNWRMRRRKYVTGWVMPTFYSPKEIFNRLKDSLVPDTGLVTQVWADNNTKRMDFLTAMAEIPQTLSSFLDALGYLGSLIKDFKRRRFFLNKAHQRIRNKLGVSFAERRSQIVSKYDRKIASARKPAIIVKLRQRKEKALKALDKMRVREEKKMIREFATQAASLWLSFRYEIMPLYYQSQDVLDVIANSTSEFMTSRDFVAKAINIGIPLEWNLDQENLVSQPRHNVMVKSKLSPENNIGKTLSVNPFTTAWELLTLSFVVDWFVNFGDVIAGFTGGYSDDSGATASWRFDDKKVFHLKNIPSAMVIVDINFYTRQVIDPRLCGGLAFSPKLNLFRYLDAMSLSWNRSRLKISRAT chain 2: ANKPMQPITSTANKIVWSDPTRLSTTFSASLLRQRVKVGIAELNNVSGQYVSVYKRPAPKPEGCADACVIMPNENQSIRTVISGSAENLATLKAEWETHKRNVDTLFASGNAGLGFLDPTAAIVSSDTT | 2 and 1 |  | 
2 | B1 |  | 2 | 
3 | AP205 coat protein (Coat) (natural protein, coat protein (Coat) of Acinetobacter phage AP205; native protein of the capsid shell; also forms T=3 and T=4 icosahedral particles; also called Coat-dimer; Coat shell; source: in AP205 virions and VLPs grown on A. gp16, purified (CsCl gradient)) ANKPMQPITSTANKIVWSDPTRLSTTFSASLLRQRVKVGIAELNNVSGQYVSVYKRPAPKPEGCADACVIMPNENQSIRTVISGSAENLATLKAEWETHKRNVDTLFASGNAGLGFLDPTAAIVSSDTT |  | 178 | binds
